This assay addresses receptor for advanced glycation end products (human (endogenous in MDA-MB-231)) (UniProt Q15109).
Chain of UniProt Q15109 (Q15109 23-404): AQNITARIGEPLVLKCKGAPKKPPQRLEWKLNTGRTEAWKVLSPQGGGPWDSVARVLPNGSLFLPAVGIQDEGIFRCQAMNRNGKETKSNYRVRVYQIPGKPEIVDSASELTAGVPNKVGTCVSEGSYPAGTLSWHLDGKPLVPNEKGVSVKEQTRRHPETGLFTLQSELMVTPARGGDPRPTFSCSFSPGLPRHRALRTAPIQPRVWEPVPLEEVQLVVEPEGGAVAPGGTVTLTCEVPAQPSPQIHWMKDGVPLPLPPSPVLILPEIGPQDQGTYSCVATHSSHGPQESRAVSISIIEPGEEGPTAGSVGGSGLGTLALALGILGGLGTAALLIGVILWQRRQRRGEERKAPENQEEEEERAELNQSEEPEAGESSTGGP

As to “recombinant human Ac-APE1/Ref-1 (from UniProt P27695 1-318) (natural protein)”, the DNA fragmentation of hyperacetylated MDA-MB-231 cells treated with rh Ac-APE1/Ref-1 after pretreatment with anti-APE1/Ref-1 antibody (2 µg, 2 h), against anti-IgG treated cells amounted to 35% and the cell viability of hyperacetylated MDA-MB-231 cells treated with rh Ac-APE1/Ref-1 after pretreatment with anti-APE1/Ref-1 antibody (2 µg, 2 h) stood at 72.8%.

The values above are taken from paper PMC5992149.
